T1: CD123 (Homo sapiens (Human), UniProt P26951 19-305, limits assumed)
T1 construct: also called CD123-Signal
T1 sequence: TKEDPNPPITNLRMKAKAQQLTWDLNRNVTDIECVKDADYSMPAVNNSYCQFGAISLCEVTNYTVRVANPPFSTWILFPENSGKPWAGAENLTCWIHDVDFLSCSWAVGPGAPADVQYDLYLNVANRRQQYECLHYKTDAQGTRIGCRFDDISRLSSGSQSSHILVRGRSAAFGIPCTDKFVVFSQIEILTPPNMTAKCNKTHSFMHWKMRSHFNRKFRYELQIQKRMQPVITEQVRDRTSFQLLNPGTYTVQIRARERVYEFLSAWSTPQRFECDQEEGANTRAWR

B1: D domain SEQ ID NO: 700 (designed binder)
chain: MGSWEEFDDRLDAIEHRLWALGGSEAELADFEGSIAAFESWLQVYKGKGNPEVEALEAEAEAIADELWAYRHN
B2: D domain SEQ ID NO: 683 (designed binder)
chain: MGSWWEFTDRLEAIEDRLWALGGSEAELAHFEDSIAQFEQELQWYKGKGNPEVEALADEADAIESELHAYRHN
B3: D domain SEQ ID NO: 702 (designed binder)
chain: MGSWNEFWERLDAIEWRLFALGGSEAELAFFELDIAWFEEELQWYKGKGNPEVEALIFEAHAITLELDAYRHN
B4: D domain SEQ ID NO: 697 (designed binder)
chain: MGSWYEFESRLDAIVDRLWALGGSEAELAEFEYEIAKFEWELQDYKGKGNPEVEALNWEAGAIEFELYAYRHN
B5: D domain SEQ ID NO: 708 (designed binder)
chain: MGSWFEFEWRLDAIENRLNALGGSEAELAWFEYHIAAFEDSLQHYKGKGNPEVEALEWEAHAIQSELQAYRHN
B6: D domain SEQ ID NO: 692 (designed binder)
chain: MGSWDEFDTRLDAIFSRLYALGGSEAELAMFEGEIAEFEGSLQHYKGKGNPEVEALDFEAHAIDEELWAYRHN
B7: D domain SEQ ID NO: 691 (designed binder)
chain: MGSWVEFEYRLDAISDRLWALGGSEAELAFFENEIASFESDLQFYKGKGNPEVEALMFEAEAIDDELHAYRHN
B8: D domain SEQ ID NO: 687 (designed binder)
chain: MGSWREFHDRLFAIDGRLWALGGSEAELANFEWDIADFEFELQDYKGKGNPEVEALSWEADAIMQELGAYRHN
B9: D domain SEQ ID NO: 689 (designed binder)
chain: MGSWEEFEQRLWAIDDRLWALGGSEAELAFFEYEIAEFEMDLQWYKGKGNPEVEALFYEAHAINEELWAYRHN
B10: D domain SEQ ID NO: 745 (designed binder)
chain: MGSWIEFEDRLYAIEDRLWALGGSEAELAAFEKEIAAFESELQAYKGKGNPEVEFLRYEAAEIRYWLQAYRHN
B11: D domain SEQ ID NO: 709 (designed binder)
chain: MGSWYEFDDRLEAIWDRLGALGGSEAELAAFEKEIAAFESELQAYKGKGNPEVEWLRETAADIRAELQAYRHN
B12: D domain SEQ ID NO: 714 (designed binder)
chain: MGSWEEFHDRLMAIETRLWALGGSEAELAAFEKEIAAFESELQAYKGKGNPEVEWLRYEAADIRDYLQAYRHN
B13: D domain SEQ ID NO: 712 (designed binder)
chain: MGSWTEFDRRLDAIWDRLFALGGSEAELAAFEKEIAAFESELQAYKGKGNPEVEWLREEAADIRDYLQAYRHN
B14: D domain SEQ ID NO: 713 (designed binder)
chain: MGSWTEFDMRLDAIWDRLFALGGSEAELAAFEKEIAAFESELQAYKGKGNPEVEELREEAATIRGVLQAYRHN
B15: D domain SEQ ID NO: 711 (designed binder)
chain: MGSWIEFEVRLDAIWDRLFALGGSEAELAAFEKEIAAFESELQAYKGKGNPEVEYLRDEAADIRQSLQAYRHN
B16: D domain SEQ ID NO: 707 (designed binder)
chain: MGSWEEFTIRLGAIYWRLFALGGSEAELANFEWFIAEFEYELQPYKGKGNPEVEALVIEANAIDGELQAYRHN
B17: D domain SEQ ID NO: 698 (designed binder)
chain: MGSWYEFEDRLDAILYRLLALGGSEAELAWFERDIAFFESELQWYKGKGNPEVEALEWEAMAIDDELFAYRHN
B18: D domain SEQ ID NO: 693 (designed binder)
chain: MGSWHEFDDRLDAIMSRLDALGGSEAELATFEAEIATFEFVLQLYKGKGNPEVEALLAEAYAIDWELEAYRHN
B19: D domain SEQ ID NO: 678 (designed binder)
chain: MGSWFEFEERLNAISWRLHALGGSEAELAYFEEDIAWFEDDLQFYKGKGNPEVEALENEAYAIWEELDAYRHN
B20: D domain SEQ ID NO: 699 (designed binder)
chain: MGSWGEFMDRLEAIDYRLWALGGSEAELAWFESDIAEFEQELQMYKGKGNPEVEALWDEAMAIRDELFAYRHN
B21: D domain SEQ ID NO: 686 (designed binder)
chain: MGSWEEFYYRLHAIDNRLWALGGSEAELAYFEWHIADFELELQDYKGKGNPEVEALSEEATAIFEELWAYRHN
B22: D domain SEQ ID NO: 685 (designed binder)
chain: MGSWVEFYNRLDAIENRLWALGGSEAELAFFEELIAQFEFALQDYKGKGNPEVEALEDEADAIWEELMAYRHN
B23: D domain SEQ ID NO: 677 (designed binder)
chain: MGSWEEFFFRLEAIDDRLYALGGSEAELALFEEVIAYFEQDLQWYKGKGNPEVEALYVEAYAIQEELYAYRHN
B24: D domain SEQ ID NO: 705 (designed binder)
chain: MGSWDEFWDRLDAIEDRLFALGGSEAELADFERVIAWFENDLQEYKGKGNPEVEALDNEADAIRIELHAYRHN
B25: D domain SEQ ID NO: 674 (designed binder)
chain: MGSWWEFYDRLTAIEARLWALGGSEAELADFEEGIADFEYDLQDYKGKGNPEVEALFWEAWAIQSELTAYRHN
B26: D domain SEQ ID NO: 680 (designed binder)
chain: MGSWAEFDDRLEAIEYRLHALGGSEAELAWFEEGIAGFEHALQSYKGKGNPEVEALETEAGAINEELWAYRHN
B27: D domain SEQ ID NO: 679 (designed binder)
chain: MGSWFEFEERLEAIIYRLWALGGSEAELAMFEESIAWFESDLQQYKGKGNPEVEALEYEAMAISKELKAYRHN
B28: D domain SEQ ID NO: 681 (designed binder)
chain: MGSWDEFEERLQAIEYRLWALGGSEAELAWFEEVIAQFEYDLQKYKGKGNPEVEALSTEAQAIQDELWAYRHN
B29: D domain SEQ ID NO: 688 (designed binder)
chain: MGSWEEFDERLWAISDRLWALGGSEAELAYFEGEIAYFEQNLQTYKGKGNPEVEALQTEALAIDTELWAYRHN
B30: D domain SEQ ID NO: 675 (designed binder)
chain: MGSWYEFEDRLAAIEARLWALGGSEAELADFEEEIAYFEHGLQWYKGKGNPEVEALESEAMAIIDELHAYRHN
B31: D domain SEQ ID NO: 703 (designed binder)
chain: MGSWYEFDARLDAIEERLYALGGSEAELAAFEFEIAGFEEALQWYKGKGNPEVEALLKEAEAITDELYAYRHN
B32: D domain SEQ ID NO: 694 (designed binder)
chain: MGSWYEFFDRLDAIYDRLYALGGSEAELASFEAQIAEFEVELQSYKGKGNPEVEALEWEAWAIDEELYAYRHN
B33: D domain SEQ ID NO: 704 (designed binder)
chain: MGSWDEFSERLDAIWGRLEALGGSEAELATFEFHIAEFEHELQYYKGKGNPEVEALQGEAAAIINELYAYRHN
B34: D domain SEQ ID NO: 706 (designed binder)
chain: MGSWDEFDDRLEAIVDRLFALGGSEAELAMFEFEIAQFEHQLQYYKGKGNPEVEALRDEADAIWIELDAYRHN
B35: D domain SEQ ID NO: 701 (designed binder)
chain: MGSWYEFADRLDAIMDRLVALGGSEAELAYFEWEIAAFEEFLQMYKGKGNPEVEALDEEAEAIKDELMAYRHN
B36: D domain SEQ ID NO: 676 (designed binder)
chain: MGSWWEFSWRLEAIETRLDALGGSEAELAFFEMDIAWFEQDLQLYKGKGNPEVEALEEEAYAIYEELEAYRHN
B37: D domain SEQ ID NO: 682 (designed binder)
chain: MGSWWEFTDRLDAIFDRLWALGGSEAELAAFEESIAIFEQDLQYYKGKGNPEVEALEYEANAIQYELEAYRHN
B38: D domain SEQ ID NO: 695 (designed binder)
chain: MGSWFEFLYRLDAIEDRLWALGGSEAELAEFEQEIAKFESELQSYKGKGNPEVEALEWEAHAIDMELEAYRHN
B39: D domain SEQ ID NO: 684 (designed binder)
chain: MGSWVEFFWRLDAIEDRLWALGGSEAELANFEFEIADFEAWLQKYKGKGNPEVEALHSEADAIQLELRAYRHN
B40: D domain SEQ ID NO: 690 (designed binder)
chain: MGSWDEFHQRLAAIGDRLWALGGSEAELAYFEWEIATFEWDLQVYKGKGNPEVEALYFEATAIDEELMAYRHN
B41: D domain SEQ ID NO: 696 (designed binder)
chain: MGSWLEFEDRLVAIDHRLFALGGSEAELAEFEEEIALFESYLQDYKGKGNPEVEALNWEADAIHAELYAYRHN

For the assay, the target named is T1, CD123. Nature of the assay: ELISA, format not described. Further details: unit not given here. In general terms: In an ELISA, binding on a coated surface is turned into a signal by an enzyme label.
Regarding B1, the ELISA_avg was found to be 4.

In the case of B2, the ELISA_avg turned out to be 16.6.

In the case of B3, the ELISA_avg amounted to 3.

B4 came in with an ELISA_avg of 5.1.

Take B5: the ELISA_avg stood at 3.3.

As to B6, the ELISA_avg was found to be 4.

Turning to B7, the ELISA_avg came to 6.5.

The molecule B8 came in with an ELISA_avg of 5.6.

B9 had an ELISA_avg of 5.7.

B10 came in with an ELISA_avg of 4.

In turn, B11 returned an ELISA_avg of 3.3.

B12 displayed an ELISA_avg of 4.3.

As to B13, the ELISA_avg is 9.2.

B14 had an ELISA_avg of 3.1.

Turning to B15, the ELISA_avg was 4.2.

B16 displayed an ELISA_avg of 3.3.

The molecule B17 showed an ELISA_avg of 4.3.

For the molecule B18, the ELISA_avg was 7.7.

For the molecule B19, the ELISA_avg was determined as 13.

For B20, the ELISA_avg came out at 4.6.

Regarding B21, the ELISA_avg worked out at 3.

For B22, the ELISA_avg came out at 6.9.

As to B23, the ELISA_avg was determined as 3.2.

The molecule B24 yielded an ELISA_avg of 3.9.

On to B25, for which the ELISA_avg came to 3.2.

B26: the ELISA_avg worked out at 5.8.

Molecule B27 yielded an ELISA_avg of 3.7.

B28 returned an ELISA_avg of 3.8.

B29 returned an ELISA_avg of 6.5.

For the molecule B30, the ELISA_avg was determined as 3.8.

In the case of B31, the ELISA_avg was determined as 8.9.

In turn, B32 gave an ELISA_avg of 4.7.

As to B33, the ELISA_avg came to 3.2.

For the molecule B34, the ELISA_avg amounted to 5.6.

As to B35, the ELISA_avg was determined as 3.3.

Take B36: the ELISA_avg came to 3.3.

Turning to B37, the ELISA_avg was 7.5.

The molecule B38 displayed an ELISA_avg of 6.6.

Molecule B39 registered an ELISA_avg of 4.

As to B40, the ELISA_avg was 3.7.

For the molecule B41, the ELISA_avg came out at 3.9.

The record behind these values is US20250026849A1 (ARCELLX, published 2025).
